From patent publication US20240279318A1
Where a chain is given by its changes, count along the chain named.

B1: AS170036 VL1VH1-VHG56N (scFv)
scFv: QSALTQPRSVSGSPGQSVTISCAGTSSDVGSENYVSWYQQHPGKAPKLMIYQVNKRASGVPDRFSGSKSGNTASLTISGLQAEDEADYYCASYRSSDHNIVFGGGTKLTVLGGGGSGGGGSGGGGSEVQLVESGGGLVQPGGSLRLSCAASGFTFSSYAMSWVRQAPGKGLEWVSTINSGTNSPYYADSVKGRFTISRDNSKNTLYLQMNSLRAEDTAVYYCAKNFFDGSWFLGPPAMDYWGQGTLVTVSSHHHHHH
B2: AS170036 VL1VH1-VHG108A (scFv)
scFv: B1 scFv with N182G, G234A
B3: AS170036 VL1VH1-VHS57M (scFv)
scFv: B1 scFv with N182G, S183M
B4: AS170036 VL1VH1-VHS57H (scFv)
scFv: B1 scFv with N182G, S183H
B5: AS170036 VL1VH1-VHG108S (scFv)
scFv: B1 scFv with N182G, G234S
B6: AS170036 VL1VH1-VHS57K (scFv)
scFv: B1 scFv with N182G, S183K
B7: AS170036 VL1VH1-VHG56Y (scFv)
scFv: B1 scFv with N182Y
B8: AS170036 VL1VH1-VLH98F (scFv)
scFv: B1 scFv with H98F, N182G
B9: AS170036 VL1VH1-VLH98Q (scFv)
scFv: B1 scFv with H98Q, N182G
B10: AS170036 VL1VH1-VHG108D (scFv)
scFv: B1 scFv with N182G, G234D
B11: AS170036 VL1VH1-VLH98I (scFv)
scFv: B1 scFv with H98I, N182G
B12: AS167821A-AS167821A-TCE-KIH (bispecific antibody, human IgG1, kappa, L234A L235A)
heavy: EVQLVESGGGLVQPGRSLRLSCAASGFTFDDYAMHWVRQAPGKGLEWVSGISWNSGSIGYADSVKGRFTISRDNAKNSLYLQMNSLRAEDTALYYCAKDSRGYGDYRLGGAYWGQGTLVTVSSASTKGPSVFPLAPSSKSTSGGTAALGCLVKDYFPEPVTVSWNSGALTSGVHTFPAVLQSSGLYSLSSVVTVPSSSLGTQTYICNVNHKPSDTKVDKKVEPKSCDKTHTCPPCPAPEAAGGPSVFLFPPKPKDTLMISRTPEVTCVVVDVSHEDPEVKFNWYVDGVEVHNAKTKPREEQYNSTYRVVSVLTVLHQDWLNGKEYKCKVSNKALPAPIEKTISKAKGQPREPQVYTLPPSREEMTKNQVSLWCLVKGFYPSDIAVEWESNGQPENNYKTTPPVLDSDGSFFLYSKLTVDKSRWQQGNVFSCSVMHEALHNHYTQKSLSLSPGK
light: not shown
chain: QVRLVESGGGSVQAGGSLRLSCAASGRTYSTYAMGWFRQAPGKEREGVATIYIGSGRTYYVDSVKGRFTISQDNAKNTLYLQMNNLKPEDTAMYYCTADVDPYESSWSRGLGYWGQGTQVTVSSGGGGSGGGGSGGGGSGGGGSGGGGSQVRLVESGGGSVQAGGSLRLSCAASGRTYSTYAMGWFRQAPGKEREGVATIYIGSGRTYYVDSVKGRFTISQDNAKNTLYLQMNNLKPEDTAMYYCTADVDPYESSWSRGLGYWGQGTQVTVSSEPKSSDKTHTCPPCPAPEAAGGPSVFLFPPKPKDTLMISRTPEVTCVVVDVSHEDPEVKFNWYVDGVEVHNAKTKPREEQYNSTYRVVSVLTVLHQDWLNGKEYKCKVSNKALPAPIEKTISKAKGQPREPQVYTLPPSREEMTKNQVSLSCAVKGFYPSDIAVEWESNGQPENNYKTTPPVLDSDGSFFLVSKLTVDKSRWQQGNVFSCSVMHEALHNRYTQKSLSLSPGK
B13: 67-AS170036 VL1VH1-57K98F108A (scFv)
scFv: B1 scFv with H98F, N182G, S183K, G234A
B14: 70-AS170036 VL1VH1-57K98I108A (scFv)
scFv: B1 scFv with H98I, N182G, S183K, G234A
B15: 82-AS170036 VL1VH1-57M98Q108A (scFv)
scFv: B1 scFv with H98Q, N182G, S183M, G234A
B16: 75-AS170036 VL1VH1-57K98Q108S (scFv)
scFv: B1 scFv with H98Q, N182G, S183K, G234S

Target: AFP158 homologous peptides/HLA-A*02:01 complexes
Assay: SPR, crude scFv captured, complexes as analyte

SPR response [RU] | Binder
< 3.5 | B1
< 3.5 | B2
< 3.5 | B3
< 3.5 | B4
< 3.5 | B5
< 3.5 | B6
< 3.5 | B7
< 3.5 | B8
< 3.5 | B9
< 3.5 | B10
< 3.5 | B11

Target: other peptide-loaded T2 cells
Assay: cell-based or functional assay

Binder | T cell redirected cell killing (LDH), 1 nM BsAb [%]
B12 | < 20

Target: group 2: CDC14A, PTP4A1, BRCA2 and RCL1 homologous peptide/HLA-A*02:01 complexes (mixed)
Assay: SPR (BIAcore T200), crude scFv captured, mixed complexes flowed over

SPR binding level [RU] | Binder
22.3 | B13
21.9 | B14
16.6 | B15
14.3 | B16

Target: group 3: OR1I1, OR51B6, OR6C1, ATG9A, RP1 and NR2E1 homologous peptide/HLA-A*02:01 complexes (mixed)
Assay: as above

SPR binding level [RU] | Binder
6.3 | B13
5.8 | B14
4.7 | B15
3.9 | B16

Target: group 1: ZNF566 and ARNTL homologous peptide/HLA-A*02:01 complexes (mixed)
Assay: as above

SPR binding level [RU] | Binder
35.8 | B13
33.7 | B14
28.2 | B15
22.6 | B16
